In article PMC4829482:

B1: germacradien-4-ol synthase (GdolS) (Streptomyces citricolor) (protein)
chain: MSDDTSLELPFTHRRNPHQTEAADRHLEWLQRHRELAAVVSGSTYTGWDITELASLVYPESSAEDLALAADLMGFYFLFDDQFDSPLGRRPEQVALICERLSAIAHGTLTAVTSPSERAFADLWRRITLGMTDRWRARAACNWEYYFACHPAEAAGRTIGQPPDREGYLTLRRGTAAMESIFDMIERLGHFEVPQHVMHHPLFRQLRQLAADIPSFTNDVRSFAQESERGDVANLVMIVRRDRCCSTEEACAVVWDEAQRMADRFCDLRDQLPDACRSMSLDPAQRLAAERYADGMALWLAGYLHWESHTRRYHHG

Assays:
[1] = test system: CC(C)=CCC/C(C)=C/CC/C(C)=C/CO[P@@](=O)(O)OP(=O)(O)O; test: steady-state radiochemical kinetics; format: biochemical, Streptomyces citricolor; settings: Mg2+ active site
[2] = substrate: CC(C)=CCC/C(C)=C/CC/C(C)=C/CO[P@@](=O)(O)OP(=O)(O)O; test: purified protein; settings: Mg2+ active site

Molecule	Km [1] [µM]	kcat [1] [s⁻¹]	Km [2] [µM]	kcat [2] [s⁻¹]	kcat/Km [2] [M⁻¹ s⁻¹]
germacradien-4-ol synthase (GdolS) (Streptomyces citricolor; D81E)	0.82 ± 0.11	0.01 ± 0.0006			
germacradien-4-ol synthase (GdolS) (Streptomyces citricolor; D84E)	0.92 ± 0.09	0.009 ± 0.0003			
germacradien-4-ol synthase (GdolS) (Streptomyces citricolor; E307Q)	2.24 ± 0.16	0.013 ± 0.0004			
germacradien-4-ol synthase (GdolS) (Streptomyces citricolor; Y303F)	0.66 ± 0.12	0.014 ± 0.006			
B1			1.07 ± 0.13	0.079	73800
